Laboratory results reported in patent US7572600B2, “Enzymatic activities in chemokine-mediated inflammation” (Chemocentryx, Inc., priority 2004, dated 2009).

Assays:
L1.2-CCR1 cells = target: T1, L1.2-CCR1 cells (Homo sapiens, UniProt P32246); assay: L1.2-CCR1 chemotaxis assay; format: cell-based; conditions: three-point titrations 0.5, 5, 50 nM, 2 hr
T1 construct: expressed in transfected cells; host or cells: murine L1.2 cells (G-418 selected transfectant)
T1 sequence (P32246 1-355): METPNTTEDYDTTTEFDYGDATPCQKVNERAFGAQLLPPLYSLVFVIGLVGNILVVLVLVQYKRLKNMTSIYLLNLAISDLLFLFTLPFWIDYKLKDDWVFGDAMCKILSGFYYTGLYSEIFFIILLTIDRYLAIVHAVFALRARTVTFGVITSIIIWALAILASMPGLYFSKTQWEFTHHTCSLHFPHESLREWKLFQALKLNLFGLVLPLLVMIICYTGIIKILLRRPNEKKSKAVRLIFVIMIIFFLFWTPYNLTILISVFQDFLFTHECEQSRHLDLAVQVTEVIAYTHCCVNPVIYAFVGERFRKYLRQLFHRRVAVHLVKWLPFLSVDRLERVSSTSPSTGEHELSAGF
Protocol: (§1) Chemotaxis assay. L1.2-CCR1 transfectants, THP-1 cells, human monocytes and human neutrophils were collected by centrifugation and resuspended in HBSS containing 0.1% BSA. Chemotaxis assays were performed in 96-well ChemoTx® microplates (Neuroprobe, Rockville, Md.) as follows. Chemokines were added to the lower wells (final volume 29 μL), and 20 μL of cell suspension (5×10^6 cells/mL) was added to the polycarbonate filter (3 μm pore size for neutrophils, 5 μm for other 3 cell types). After incubation at 37° C. in the presence of 5% CO2 for 1 hr (neutrophils), 90 min (monocytes) or 2 h (THP-1 and L1.2-CCR1), cells were removed from the upper surface of the filter by scraping. Cells that migrated into the lower chamber were quantified by using the CyQuant cell proliferation assay kit (Molecular Probes, Eugene, Oreg.) and analyzed with a Tecan (Durham, N.C.) fluorimeter (excitation at 480 nm, emission at 530 nm). Data were analyzed and plotted in arbitrary units of fluorescence using Prism (GraphPad Software, San Diego, Calif.).

CCR1 [1] = target: T2, CCR1 (Homo sapiens, UniProt P32246); assay: Calcium mobilization in murine L1.2 cells expressing human CCR1; format: cell-based; parameters: expressed in transfected cells; host or cells: murine L1.2 cells (G-418 selected transfectant); conditions: for calcium mobilization: L1.2-CCR1 cells
T2 sequence (P32246 1-355): T1 sequence (P32246 1-355)
Protocol: (§2) Calcium Mobilization Assay. Cells were loaded for 1 hour with 2 μM indo-1/AM dye (Molecular Probes, Eugene, Oreg.) in culture medium, then washed with 10 ml PBS and resuspended at 10^6/ml in HBSS containing 1% FBS. Cytosolic calcium responses were determined using a Photon Technology International (Lawrenceville, N.J.) fluorimeter, with excitation at 350 nm and dual emission at 400 and 490 nm. Alternatively, cells were loaded with 5 μg/ml Fluo-4 AM dye (Molecular Probes, Eugene, Oreg.), then washed and analyzed on a Fluorometric Imaging Plate Reader 384 (FLIPR^384 Molecular Devices, Sunnyvale, Calif.), with 505 nm excitation and 530 nm emission.
(§3) Receptor signaling assay. For individual measurements, cells were loaded for 45 min at room temperature with 2 μM indo-1/AM (Invitrogen, Carlsbad Calif.) in culture medium, then washed with 10 ml PBS and resuspended at 10^6 cells/ml in HBSS containing 0.1% BSA. Cytosolic calcium levels were determined using a Photon Technology International fluorimeter (excitation at 350 nm, ratio of dual emission at 400 and 490 nm). For measuring calcium dose responses, cells were analyzed with a Fluorometric Imaging Plate Reader 384 (FLIPR^384) (Molecular Devices, Sunnyvale, Calif.). Cells were loaded for 1 hr at 37° C. with 5 μM fluo-4 in HBSS with 0.1% BSA, then washed, transferred to black-wall 96-well plates, and subsequently excited at 505 nm with emission recorded at 530 nm with a standard protocol provided by the manufacture. Cells were stimulated with agonists 20 s after the monitoring of fluorescence began. Data were analyzed and plotted in arbitrary units of fluorescence using Prism. To ensure that responses were specific to FPRL1, we utilized a selective small-molecule antagonist of human FPRL1, generated by ChemoCentryx, which was optimized from a high throughput compound library screening approach.

human monocytes [2] = assay: Chemotaxis of human monocytes; format: cell-based
Protocol: as §1
(§4) Chemotaxis assays. L1.2-CCR1 and L1.2-FPRL1 transfectants, monocytes and neutrophils were collected by centrifugation and resuspended in HBSS with 0.1% BSA. The assays were performed in 96-well ChemoTx® microplates (Neuroprobe, Rockville, Md.). Chemokines were diluted in HBSS with 0.1% BSA and added to the lower wells (final volume 29 μL), then 20 μL of cell suspension (5×10^6 cells/mL for monocytes; 2.5×10^6 cells/mL for neutrophils) were added to the polycarbonate filters (5 μm pore size for monocytes and FPRL1 transfectants; 3 μm pore size for neutrophils). After incubation for 90 min (37° C., 100% humidity, 5% CO2), the filters were removed and the cells that migrated into the lower chamber were quantified by using the CyQuant cell proliferation assay kit (Molecular Probes, Oreg.).

[3] = system: monocyte-derived dendritic cells; assay: Calcium mobilization in monocyte-derived dendritic cells; format: cell-based, human; conditions: immature DC; after digestion with chymase, cathepsin G, elastase, synovial fluid or PMN sup #1
Protocol: Human monocytes were obtained from buffy coats purchased from the Stanford Blood Bank (Palo Alto, Calif.) by sedimentation on Ficoll-Paque (Amersham, Piscataway, N.J.) and selection with anti-CD14 magnetic beads (Miltenyi, Auburn, Calif.) according to the manufacturers' instructions. For generation of dendritic cells, monocytes were cultured for 6 days in RPMI-1640 medium containing 10% FBS (HyClone, Logan, Utah). On days 0, 2 and 4, GM-CSF and IL-4 (both purchased from R&D Systems, Minneapolis, Minn.) were added to the cultures at 1000 WHO unit/ml each. The cells were confirmed to be CD14^−CD1a^+ immature DC by FACS staining on day 6.
as §2
Immature and mature DC preparation. Immature DCs were derived by culturing CD14+ monocytes in T-175 cultured flasks at a density of 10^6 cells/ml in RPMI supplemented with 10% FBS. Recombinant human cytokines GM-CSF and IL-4 (final concentration 1000 and 500 U/ml, respectively) were added on day 0, 2, 4 and 6. Cells were harvested on day 6 as immature DCs and characterized for surface marker expression by flow cytometry. DC maturation was carried out by culturing day-6 immature DCs in RPMI-10% FBS supplemented with GM-CSF, IL-4 and 50 μg/ml polyIC (Sigma, St. Louis Mo.). After two more days of culture, cells were harvested as mature DCs and characterized by surface marker expression by flow cytometry.
as §3

human monocytes [4] = assay: Calcium mobilization in freshly isolated human monocytes; format: cell-based
Protocol: as §2, §3

CCR9 = target: T3, CCR9 (Homo sapiens, UniProt P51686); assay: Calcium mobilization in Molt4 cells; format: cell-based; conditions: digestions at 1 nM, all proteases and fluids tested
T3 construct: endogenous in cells; host or cells: Molt4 cells (per the assay name)
T3 sequence (P51686 1-369): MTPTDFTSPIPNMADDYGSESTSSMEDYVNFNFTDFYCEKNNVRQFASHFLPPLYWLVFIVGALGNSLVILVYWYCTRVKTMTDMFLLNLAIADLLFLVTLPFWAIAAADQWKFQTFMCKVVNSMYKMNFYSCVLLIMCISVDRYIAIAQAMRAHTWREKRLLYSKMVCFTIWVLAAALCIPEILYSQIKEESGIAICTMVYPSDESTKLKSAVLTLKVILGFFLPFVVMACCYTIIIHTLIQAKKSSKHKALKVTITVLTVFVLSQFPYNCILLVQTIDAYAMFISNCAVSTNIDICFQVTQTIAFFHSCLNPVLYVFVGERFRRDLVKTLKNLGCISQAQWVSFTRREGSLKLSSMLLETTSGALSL
Protocol: as §2

human neutrophils = assay: Chemotaxis of human neutrophils; format: cell-based
Protocol: as §1, §4

CCR1 [5] = target: T2, CCR1; assay: Competition binding with 125I-MIP-1α on human monocytes; parameters: endogenous in cells; host or cells: human CD14+ monocytes from buffy coats
Protocol: Binding assay. Competition binding studies were conducted using monocytes, L1.2-CCR1 or L1.2-FPRL1 cells. Cells were incubated for 3 hr at 4° C. with ^125I-MIP-1α (final concentration ˜0.05 nM) or ^125I-WKYMVm (final concentration ˜0.01 nM) in buffer (25 mM HEPES, 140 mM NaCl, 1 mM CaCl2, 5 mM MgCl2 and 0.2% BSA, adjusted to pH 7.1) in the presence of increasing amounts of unlabeled chemokine. Reactions were aspirated onto PEI-treated GF/B glass filters using a cell harvester (Packard). Filters were washed twice (25 mM HEPES, 500 mM NaCl, 1 mM CaCl2, 5 mM MgCl2, adjusted to pH 7.1). Scintillant (MicroScint-10; 35 μl) was added to the filters and counted in a Packard Topcount scintillation counter. Data were analyzed and plotted using Prism (GraphPad Software, San Diego, Calif.).

[6] = 10 nM input chemokine, after digestion with proteases and fluids
[7] = 10 nM, undigested or recombinant chemokine
[8] = undigested chemokine or peptide, 100 nM (CCL23β up to 250 nM)

B1: CCL6/C10: recombinant murine C6* chemokine (protein, listed as Homo sapiens)
chain: GLIQEMEKEDRRYNPPIIHQGFQDTSSDCCFSYATQIPCKRFIYYFPTSGGCIKPGIIFISRRGTQVCADPSDRRVQRCLSTLKQGPRSGNKVIA
B1 was tested, and the “chemotaxis potency of truncated forms versus full-length chemokine” value (L1.2-CCR1 cells) was “greater potency”, the calcium mobilization (CCR1 [1]; [6]) was “uniformly active” and the calcium mobilization (CCR1 [1]; [7]) was “either not active or weakly active”. For the same molecule, the chemotaxis (human monocytes [2]; 200 nM after digestion with chymase, cathepsin G or elastase) was “stimulated chemotaxis”, the “concentration with the most migration” value (human monocytes [2]; after digestion with synovial fluid #1) was 2 nM and the “calcium mobilization versus full-length chemokine” value [3] was “more efficacious”. For the same molecule, the calcium mobilization (human monocytes [4]; 100 nM after digestion with chymase, cathepsin G, elastase or synovial fluid) was “mobilized calcium” and the calcium mobilization (human monocytes [4]; [8]) was “unable to induce calcium mobilization”.

B2: CCL9/MIP-1γ: recombinant murine C6* chemokine (protein, listed as Homo sapiens)
chain: QITHATETKEVQSSLKAQQGLEIEMFHMGFQDSSDCCLSYNSRIQCSRFIGYFPTSGGCTRPGIIFISKRGFQVCANPSDRRVQRCIERLEQNSQPRTYKQ
B2 was tested, and the “chemotaxis potency of truncated forms versus full-length chemokine” value (L1.2-CCR1 cells) was “greater potency”, the calcium mobilization (CCR1 [1]; [6]) was “uniformly active” and the calcium mobilization (CCR1 [1]; [7]) was “either not active or weakly active”.

B3: CCL25/TECK: non-C6* β-chemokine signaling through CCR9 (protein, UniProt O15444 24-150, looked up)
C-C motif chemokine 25: QGVFEDCCLAYHYPIGWAVLRRAWTYRIQEVSGSCNLPAAIFYLPKRHRKVCGNPKSREVQRAMKLLDARNKVFAKLHHNTQTFQAGPHAVKKLSSGNSKLSSSKFSNPISSSKRNVSLLISANSGL
With B3 the “signaling through CCR9 after digestion” value (CCR9) was “inactivated”.

B4: CCL23Δ24/MPIF-1: Recombinant CCL23/CKβ8 lacking the N-terminal 24 residues (46-120) (protein)
chain: RFHATSADCCISYTPRSIPCSLLESYFETNSECSKPGVIFLTKKGRRFCANPSDKQVQVCMRMLKLDTRIKTRKN
With B4 the “calcium mobilization in the CCR1 transfectant” value (CCR1 [1]; L1.2 cells stably expressing human CCR1) was “effective at inducing calcium mobilization”, the chemotaxis (human neutrophils) was “unable to induce migration” and the chemotaxis (human monocytes [2]; undigested) was “moderately strong chemoattraction”. For the same molecule, the “inhibition of 125I-MIP-1α binding” value (CCR1 [5]) was “most potent competitor” and the calcium mobilization (human monocytes [4]; [8]) was “strong calcium responses”.
